This data set can be described thus: soluble on expression in E. coli; label from the status in PepcDB or PDB records.
For the sequence “MFMSTDEVRRAFLSFFESKGHQIVESSSLVPANDPTLLFTNAGMNQFKDCFLGLEKRAYTRATTAQRCVRAGGKHNDLENVGFTARHHTFFEMLGNFSFGDYFKEDAIQYAWEFLTDVLQLPKERLLVTVYETDDEAFDIWNKKVGIPADRIIRIGDKKGGKKFDSDNFWQMGDTGPCGPCTEIFYDHGDHIWGGPPGSPEEDGDRFIEIWNNVFMQFNRHADGTMEPLPKPSVDTGMGIERISAIMQGVHSNYEIDVFQTLIKAAADAIGYQDLTNQSLRVVADHIRSCAFLIVDGVMPSNEGRGYVLRRIIRRAVRHGNKLGAQGAFFHKLVGPLAEVMGTAGVELKKQQALVEKVLRIEEENFGRTLDRGMSILNDALDQLSGQVLDGETVFKLYDTYGFPADLTNDVARERGFSIDEAGFEQAMEEQRQRAREAGQFGTDYNSLIKSATNTEFCGYTASRGQSVVREMFVEGAEVSTLSAGDKAIIVLDNTPFYAESGGQCGDTGVLKTDAGIFHVEDTQKLGNAIAHHGVIAQGVLATGDQVDAIVDEKRRAAISLNHSATHLLHAALRKVLGEHVAQKGSLVRAETLRFDFSHLEAMTAAEIKEVERLVNQEVRRNHSIETNIMNIDEAKAKGAMALFGEKYDDQVRVLSMGDFSTELCGGIHASNTGDIGLFKIISEGGIAAGIRRIEAVTGEGALDYLDAQQAQHDAKVSEMAAKAKLLEKEIQQLKDKLAAKESAGLINQVKQIAGVNVLVAQLNGADNKALRGMVDDLKNQLSSGIIMLGNVAEGKVGLIAGVTNDLTNKVKAGELVNMVALQVGGKGGGRPDMAQAGGTDAHALPSALESVDAWIAERL”, the “soluble on expression in E. coli” value is reported as “not soluble”.
With “MAHHHHHHMPTEADLEKIRRERAARYQQLSEAEKPRVEPCPHCHELPYKKEVCPETGIFHNLERHTIVGGAVVQSNIVRSSELMEAIDRSRIRWVESRTQMVRADAVSLNLFQSFVRQLDWSLQRYGILYGKYDASLNLIEVHAIYEPEQHGDAYTFHYLPDKRLPNVDRIAALLGLRRVGAVCTHPPRDIEEMVLSSREILLCAREQSRFGDECVLLTMSPSLTTGRIECQAWQTSPQAVHFYRLGVLREKSDDYSDLESAKYVHSSIPLEVAQQETDEKGHPRVVTMAPSHDIDTRWFTSYVAVQQFESPVVRNLFMRVSRPGMEPPAMINLRNYMEDPKRRKVPLIEKLADFHVLIFLAESVFSVADDMPVIIGAITKQRPAEDAMHYGEVLKLYLEQ”, the “soluble on expression in E. coli” value is given as “soluble”.
In the case of “MSDLENKKAEEAPKKRPYNLREKKEKKAAYRSLIRPELADELYDKILNIVVVQKKYKDPDYSAKDLAKELKTNTRYLSAVVNSRFGMNYSCLLNEYRVKDALHLLTDKRYADKNVEEISAMVGFANRQSFYAAFYKNVGETPNGYRKKHAESKK”, the “soluble on expression in E. coli” value is “not soluble”.
Consider “MSLRLSKTLCMAILAGSTLLAPNALMAMGGPSRVKIDWQIQGQMGMIKMNPYGLSPLTAIIMNNGYVLSDIKKNQMVKLFLNNVNSKMAKTYGGIPIFGLYPSYSKGKVSYTKTANGKSQKVIDEIYKITTPWASIEPSGRTDQRGTLFENVKVLKMDPKFSDRLYLVNNAPGKQSGKDSQSVWNNLVGGAMEWDENSNVFIIDTKGEIRWYYDNNKLMNWGNIYNRGIMISFRQNKDGALTWGFGQRYVKYDCLGREIFNRKLPAVYIDFSHAMDNMQNGHYFFNKYFASLRPDSKHVRTVCDTIIEVDENGNVVDDWRLYKILDPYRSTIIKTLDQSAVCLNIDASKVGKTLSDEELAKMDESDKFGDIAGIGRNWAHAYKGWNKEFQKYLLQPVDKNGNEWFYPVTSLTQYEPDKDSIMVYSATLEWLLILVKVSLGEPKPKIDEFNWGAKEPSVQIQFSGSGTDYQAMPFSVDQAFNPKEGHHHHHH”, for which the “soluble on expression in E. coli” value is “not soluble”.
“GMNQRDVILDCEKKLLTAIQNNDVESLEVLLHDDLLFIIPSGETVTKETDIAAYSSGKIALRAVVPSDYIIRIIHDTVVVSVNIEIKGEYMEHTLDNTFRYLRVWKLFDGNWKVIAGSCTAIG”: the “soluble on expression in E. coli” value was “soluble”.
For the sequence “MTKPMIQIALDQTNLTDAVAVASNVASYVDVIEVGTILAFAEGMKAVSTLRHNHPNHILVCDMKTTDGGAILSRMAFEAGADWITVSAAAHIATIAACKKVADELNGEIQIEIYGNWTMQDAKAWVDLGITQAIYHRSRDAELAGIGWTTDDLDKMRQLSALGIELSITGGIVPEDIYLFEGIKTKTFIAGRALAGAEGQQTAAALREQIDRFWP”, the “soluble on expression in E. coli” value is listed as “not soluble”.
Regarding “MNETKVLIEKITEGIQEKKGKNIVIADLTNIDDTICKYFVICQGNSPSQVIAIVDSIKEFTRKGAGTKPSAIDGQRNAEWVAMDFSDVLVHVFLPEARNFYNLEHLWADAKLTTIPDID”, the “soluble on expression in E. coli” value was “soluble”.
Consider “MSLRKEDKAAYRCLKAIKAGEKLTDAPAEDLPDLDLKPLEEMQNIYREHPEALQASVEIAEQCRVDVSLGQTRLPSFPTPDGTSADDYLTDICMEGLRSRFGKPDERYLRRLQYELDVIKRMKFSDYFLIVWDFMKHAHEKGIVTGPGRGSAAGSLVAYVLYITDVDPIKHHLLFERFLNPERVSMPDIDIDFPDTRRDEVIQYVQQKYGAMHVAQIITFGTLAAKAALRDVGRVFGVSPKEADQLAKLIPSRPGMTLDEARQQSPQLDKRLRESSLLQQVYSIARKIEGLPRHASTHAAGVVLSEEPLTDVVPLQEGHEGIYLTQYAMDHLEDLGLLKMDFLGLRNLTLIESITSMIEKEENIKIDLSSISYSDDKTFSLLSKGDTTGIFQLESAGMRSVLKRLKPSGLEDIVAVNALYRPGPMENIPLFIDRKHGRAPVHYPHEDLRSILEDTYGVIVYQEQIMMIASRMAGFSLGEADLLRRAVSKKKKEILDRERSHFVEGCLKKEYSVDTANEVYDLIVKFANYGFNRSHAVAYSMIGCQLAYLKAHYPLYFMCGLLTSEGHHHHHH”, for which the “soluble on expression in E. coli” value was “not soluble”.
For “MSLGDLLTFATGHKYYGINFDEDERGWYYREWAPEAYEVYLTGDFNDWDRRSHPLTRNEFGVWQIFLPYDLYQKRFVHKSKIKVQIVGANGTHDRIPAYITRVVQDTETTDFSGQLWFPQKPFEWTDRDFNLRKIKNPIIYEAHVGMAQEKEGVGTYREFADKIVPRIRQMGYNSIQLMAVMEHPYYGSFGYHVSNFFAPSSRFGTPEDLKYLVDRAHKFGLAVIMDVVHSHAVKNLSEGLNEFDGSDHQYFHPGDRGYHTGWDSKLFDYGKLEVKRFLLSNLRYWLEEYHFDGFRFDGVTSMLYFDHGMKTFDSYDTYFKGGVDFDAVTYLQLANEVTHRYLKDSITIAEDVSGMPGLSRSIRDGGVGFDYRLAMGIPDFWIKYLKHLQDEQWNIYEMWSTLTNRRYKEKTIAYAESHDQAMVGDKTIAFWLMDKEMYFHMQVDDPNPVIDRGIAIHKLLRLFTFALGGEGYLNFMGNEFGHPEWIDFPREGNGWSYQYARRQWSLVDNPKLKYQYLGAFDEAMMRLVRKTRLLAAEPAQQLNMDDHNKVIIFERNNMIFVFNFSVSNSVFDYKFKSFAPGTFEIVLNSDDTRFGGHGRVDDTLEYHTNTEGQLSIYTPNRSVLVFQRKEASEGHHHHHH” the value was “not soluble”.
Turning to “MKVFNRPILFDIVSRGSPDGLEGLLSFLLTHKKRLTDEEFREPSTGKTCLPKALLNLSAGRNDTIPILLDIAEKTGNMREFINSPFRDVYYRGQTALHIAIERRCKHYVELLVEKGADVHAQARGRFFQPKDEGGYFYFGELPLSLAACTNQPHIVHYLTENGHKQADLRRQDSRGNTVLHALVAIADNTRENTKFVTKMYDLLLIKCAKLFPDTNLEALLNNDGLSPLMMAAKTGKIGIFQHIIRREIADAAAHHHHHH”, the “soluble on expression in E. coli” value is listed as “soluble”.
The result for “MGSDKIHHHHHHMPKITKIEVQKKNKERFNLFLDEQFEMGIDIDTLVKFNLKKGQQLEAADMAEIQKYDHYRIGLNKAIQYLSYKKRTEKEVIQYLQKEEISEQAISEVIEYCYREKLIDHQDYAESLKNTMIRTTDKGPKIYQQKLYQLGIEPNIIEIFTELYREQQELDDIIQIAEKISKTKKGPQNKVKEKVMQSLIQKGFEMETIHAVLNEMDFTQDEAVLDDLLQRDLEKIYNKNRKKYTQQKLISKTIEGLMRKGYKYDKIKAKLEESGIADGTEEIE” reads “not soluble”.
The result for “MAFFRNCDPDDPLCIDECRLQKFEYLRWVRLLPSGDEDVLSYCASIGARLGKSEGYVSRRIDAFSMLLELSKVHELQLKMWHLDITRLMVIAQALSGVEKEVIEEIDAPLARFLTPKRDNQKMPGPKVIKKFIVDLLVRVEDAVEEVDSPQELAIDFYDAGNGKTGINAVVDNATASIFRDQLMRLAKAYECDDSSALLLMATQEGKSLTINLYKGDNFGELMTADGYRLSRKSVDLVFPNASRRSLEGVENVETRGYSFTPSMRAYIQARDGVCRFPGCSIRAVNCDIDHVEEYGLGGKTTARNAQCLCRRHHNLKTSKAVDCEISGDASVSWILEDGTKVVTLPEGIFSADRLFGQTFAQRVVDRIRRRKLRMRKNSCDDVPF” reads “not soluble”; that for “GPGSMRLSLLRRFCEYVPKGAPTQVSLSVETPYGVTRAFRMTEMAAAAADAERDAKGFFYLPRMDYDVGQGVAPLMSRKQFDVQYNVFHKAAVDRLNAHTLGSELEGHNLNVVIRNSSFDASHAVIHAAASEHFNYCFWYRSLRPWGTAVPARLKEELQLQYSQNGTLDAVKEVQRLFTVAALSQQSAGGWVYLVWTGKAFDVIPFDHGTCPIGSDLIPLLALNTHESARCYDYPLAAEDEEGDEVERFVRNFFKTCNWRLVEHYFLQCGRA”, “not soluble”; that for “MGSDKIHHHHHHVENWDEVRTAYQVARLGTVSGAADVLGVHHATVIRHIDAIEARLGVKLFQRHARGYTATEAGLDLLRVAQATDDQFSQLVGRLKGQGDEVSGELVVTSLSSMAPMLAPALAEFQQLHPDLVIRYLTGDRLFRLEYGEAHVALRAGAAPEQPDNVVQPFVAQRLALYASREYVERHGMLKGQDDMVNHRFIASDNENTRAPFERWLRSTIPAENIVFRCSDAVAGHQAIRAGAGIGFVSLWEAASSPDLVMMMDPHDEWSGKIWLVTHVDLHRTNKVQSFVRFLKEHAKSWPQ”, “not soluble”.
With “MGSDKIHHHHHHMDKSIKSNAEKFIMIYNEIDRYMRKVLDENERTGNADLVKKMAKRNKVFEEYKDELMLFARLRNSIVHNPYNAELDPIAEPHDKIIVKYGELRDKILNPPLALDTIAVKGKNIYVVTQNESVLDVMTVMKDNNYANVPVVDNLGMIVGVFSKNTVFSYMVENEGVQIRRDTKINDFKEFIPLHKHENEFFAFVSRKTLAVEIEDMFKKRIHGKKKLSLVFITETGRVKEKILGIVTPWDIAIN”, the “soluble on expression in E. coli” value is given as “not soluble”.
For “MENPMNTDHTKRNLFELYAELIHQQEKWEGLIKAFLSDELRKLDVEHGSKSQLTMTEIHVLSCVGDNEPINVTSIAEKMNTTKATVSRISTKLLGAGFLHRTQLSDNKKEVYFRLTPAGKKLHSLHKYYHQKAEQRFLSFFDRYTEEEILFAERLFRDLVTKWYPSSEEIEGGLPSIFK” the value was “not soluble”; for “MAHHHHHHMTGADPDMLGSSAPNRPALMEPSVAPSPTSSPPATNAHANGSNSNGAGNVPLSQSTWRDSAAGSQPHGHGMPSTVRAADAPGVTEEKQAEGAFGADVHYNPATEHDFAVRGGLDGGAEGEHNSAKKIRLNNVSHFKNVPSRLNVQRQSTEADLVPCTYCGRKFLPGRVQKHEDCCIDRSKPLTARKGGALPARPSTGAATPRLAKPTPAAPAVESAATGKAKFCGGCGCKKSEPDQKFCTECGHKL”, “soluble”.
For “GYQCQHNLNYWRFGDYLGIGCGSHGKLSFADGRIIRTTKVKHPRGYLAAYQNMVKPYLHTEQLVADEDRPFEFFMNRFRLMEACPKQDYVDTTGLPLSTIQDTIDWALEMGYLSETETHWQITEKGKLFLNDLLEAFMAEEDEE” the value was “not soluble”.

Values taken from the DeepSol protein solubility set.
